The results in this text go back to patent publication USRE48558 (Genentech, dated 2021).

First the molecules themselves.
B1: huMA79b graft variant SEQ ID NO: 17 (Fab, name in Kabat numbering, V domains shown)
VH: EVQLVESGGGLVQPGGSLRLSCAASGYTFSSYWIEWVRQAPGKGLEWVGEILPGGGDTNYNEIFKGRFTISADTSKNTAYLQMNSLRAEDTAVYYCTRRVPVYFDYWGQGTLVTVSS
VL: DIQMTQSPSSLSASVGDRVTITCKASKSVDYDGDSFLNWYQQKPGKAPKLLIYAASNLESGVPSRFSGSGSGTDFTLTISSLQPEDFATYYCQQSNEDPLTFGQGTKVEIKR
notes: Fab on phage; rest as huMA79b graft; also called SPL-2 mutation
B2: huMA79b graft variant SEQ ID NO: 32 (Fab, name in Kabat numbering, V domains shown)
VH: B1 VH
VL: B1 VL with K27Q, S56R, N57H, E59K, S60R
notes: Fab on phage; rest as huMA79b graft
B3: huMA79b graft variant SEQ ID NO: 58 (Fab, name in Kabat numbering, V domains shown)
VH: B1 VH with S30N, S31R, E35N
VL: B1 VL with K27Q
notes: as for B2
B4: huMA79b graft variant SEQ ID NO: 24 (Fab, name in Kabat numbering, V domains shown)
VH: B1 VH
VL: B1 VL with K27Q, S56R, N57K, E59G, S60N
notes: as for B2
B5: huMA79b graft variant SEQ ID NO: 59 (Fab, name in Kabat numbering, V domains shown)
VH: B1 VH with T28S, S30K
VL: B1 VL with K27Q
notes: as for B2
B6: huMA79b graft variant SEQ ID NO: 35 (Fab, name in Kabat numbering, V domains shown)
VH: B1 VH
VL: B1 VL with K27Q, L58R, E59K
notes: as for B2
B7: huMA79b graft variant SEQ ID NO: 52 (Fab, name in Kabat numbering, V domains shown)
VH: B1 VH
VL: B1 VL with K27Q, Q94P, S95D, D98A, L100R
notes: as for B2
B8: huMA79b graft variant SEQ ID NO: 49 (Fab, name in Kabat numbering, V domains shown)
VH: B1 VH
VL: B1 VL with K27Q, E97D
notes: as for B2
B9: huMA79b graft variant SEQ ID NO: 27 (Fab, name in Kabat numbering, V domains shown)
VH: B1 VH
VL: B1 VL with K27Q, S56R, N57K, E59K
notes: as for B2
B10: huMA79b graft variant SEQ ID NO: 53 (Fab, name in Kabat numbering, V domains shown)
VH: B1 VH
VL: B1 VL with K27Q, Q93D, S95R, E97A
notes: as for B2
B11: huMA79b graft variant SEQ ID NO: 23 (Fab, name in Kabat numbering, V domains shown)
VH: B1 VH
VL: B1 VL with K27Q, N57R
notes: as for B2
B12: huMA79b graft variant SEQ ID NO: 56 (Fab, name in Kabat numbering, V domains shown)
VH: B1 VH with T28P, S30T, E35N
VL: B1 VL with K27Q
notes: as for B2
B13: huMA79b graft variant SEQ ID NO: 25 (Fab, name in Kabat numbering, V domains shown)
VH: B1 VH
VL: B1 VL with K27Q, S56R, N57K, E59K, S60R
notes: as for B2
B14: huMA79b graft variant SEQ ID NO: 55 (Fab, name in Kabat numbering, V domains shown)
VH: B1 VH with T28P, S30R, E35Q
VL: B1 VL with K27Q
notes: as for B2
B15: huMA79b graft variant SEQ ID NO: 61 (Fab, name in Kabat numbering, V domains shown)
VH: B1 VH with T28Y, S30T
VL: B1 VL with K27Q
notes: as for B2
B16: huMA79b graft variant SEQ ID NO: 50 (Fab, name in Kabat numbering, V domains shown)
VH: B1 VH
VL: B1 VL with K27Q, E97L
notes: as for B2
B17: huMA79b graft variant SEQ ID NO: 21 (Fab, name in Kabat numbering, V domains shown)
VH: B1 VH
VL: B1 VL with K27Q, E97K
notes: as for B2
B18: huMA79b graft variant SEQ ID NO: 19 (Fab, name in Kabat numbering, V domains shown)
VH: B1 VH
VL: B1 VL with K27Q, E59K
notes: as for B2
B19: huMA79b graft variant SEQ ID NO: 26 (Fab, name in Kabat numbering, V domains shown)
VH: B1 VH
VL: B1 VL with K27Q, S56R, N57Y, E59K, S60R
notes: Fab on phage; rest as huMA79b graft; also called L2-29 mutation
B20: huMA79b graft variant SEQ ID NO: 34 (Fab, name in Kabat numbering, V domains shown)
VH: B1 VH
VL: B1 VL with K27Q, A55G, N57K, E59L, S60R
notes: as for B2
B21: huMA79b graft variant SEQ ID NO: 51 (Fab, name in Kabat numbering, V domains shown)
VH: B1 VH
VL: B1 VL with K27Q, Q93N, Q94N, E97G, T101N
notes: as for B2
B22: huMA79b graft variant SEQ ID NO: 30 (Fab, name in Kabat numbering, V domains shown)
VH: B1 VH
VL: B1 VL with K27Q, S56R, N57K, E59R
notes: as for B2
B23: huMA79b graft variant SEQ ID NO: 18 (Fab, name in Kabat numbering, V domains shown)
VH: B1 VH
VL: B1 VL with K27Q, L58R
notes: as for B2
B24: huMA79b graft variant SEQ ID NO: 63 (Fab, name in Kabat numbering, V domains shown)
VH: B1 VH with S30K, S31K
VL: B1 VL with K27Q
notes: as for B2
B25: huMA79b graft variant SEQ ID NO: 62 (Fab, name in Kabat numbering, V domains shown)
VH: B1 VH with T28P, S30G, S31R, I34V, E35N
VL: B1 VL with K27Q
notes: as for B2
B26: huMA79b graft variant SEQ ID NO: 33 (Fab, name in Kabat numbering, V domains shown)
VH: B1 VH
VL: B1 VL with K27Q, A55S, S56R, N57Y, E59S, S60R
notes: as for B2
B27: huMA79b graft variant SEQ ID NO: 31 (Fab, name in Kabat numbering, V domains shown)
VH: B1 VH
VL: B1 VL with K27Q, S56R, N57K, E59G
notes: Fab on phage; rest as huMA79b graft; also called L2-38 mutation
B28: huMA79b graft variant SEQ ID NO: 29 (Fab, name in Kabat numbering, V domains shown)
VH: B1 VH
VL: B1 VL with K27Q, S56G, N57I, E59A, S60R
notes: as for B2
B29: huMA79b graft variant SEQ ID NO: 20 (Fab, name in Kabat numbering, V domains shown)
VH: B1 VH
VL: B1 VL with K27Q, E97S
notes: Fab on phage; rest as huMA79b graft; also called SPL-5 mutation
B30: huMA79b graft variant SEQ ID NO: 28 (Fab, name in Kabat numbering, V domains shown)
VH: B1 VH
VL: B1 VL with K27Q, S56R, N57K, E59A
notes: as for B2
B31: huMA79b graft variant SEQ ID NO: 36 (Fab, name in Kabat numbering, V domains shown)
VH: B1 VH
VL: B1 VL with K27Q, N57K, E59G
notes: as for B2

Numbering of substitutions follows the chain as printed.

This assay deals with T1, extracellular domain of human CD79b (human, UniProt P40259 29-159).
T1 construct: also called huCD79becd; huCD79b-ecd
T1 sequence: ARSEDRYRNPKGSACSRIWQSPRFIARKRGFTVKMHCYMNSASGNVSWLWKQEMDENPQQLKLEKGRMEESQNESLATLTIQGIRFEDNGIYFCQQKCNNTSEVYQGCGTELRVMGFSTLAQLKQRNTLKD
The assay is described as follows: phage selection, Fab on phage, plate-bound huCD79becd.
In the case of B1, the binding result is on record as “binds”.

For B2, the binding result is recorded as “binds”.

For B3, the binding result was “binds”.

As to B4, the binding result was “binds”.

For B5, the binding result is “binds”.

As for B6, the binding result is “binds”.

On to B7, for which the binding result was “binds”.

For the molecule B8, the binding result is reported as “binds”.

As for B9, the binding result is listed as “binds”.

As for B10, the binding result was “binds”.

As to B11, the binding result is reported as “binds”.

In the case of B12, the binding result is given as “binds”.

Consider B13, for which the binding result was “binds”.

In the case of B14, the binding result is “binds”.

Regarding B15, the binding result is given as “binds”.

Turning to B16, the binding result is on record as “binds”.

As for B17, the binding result was “binds”.

As to B18, the binding result is “binds”.

Take B19: the binding result is “binds”.

As to B20, the binding result was “binds”.

As to B21, the binding result is “binds”.

Regarding B22, the binding result was “binds”.

For the molecule B23, the binding result is “binds”.

As for B24, the binding result is “binds”.

For the molecule B25, the binding result is reported as “binds”.

Regarding B26, the binding result is “binds”.

Turning to B27, the binding result is reported as “binds”.

For the molecule B28, the binding result is on record as “binds”.

As for B29, the binding result is listed as “binds”.

Consider B30, for which the binding result is listed as “binds”.

For B31, the binding result was “binds”.
